Reference: PMC3906126 (Biochemistry, 2013)

T1: WW1 domain of WWOX (residues 16–50) (human, UniProt Q9NZC7 16-50)
T1 chain (looked up): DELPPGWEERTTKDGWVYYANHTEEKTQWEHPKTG

T2: WW1–WW2 tandem module of WWOX (residues 16–91) (human, UniProt Q9NZC7 16-91)
T2 sequence (looked up): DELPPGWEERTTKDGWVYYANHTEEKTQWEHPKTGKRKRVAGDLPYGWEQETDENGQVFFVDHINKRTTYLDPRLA


Key:
Test in all cases: ITC
[1] = target: T1, WW1 domain of WWOX (residues 16–50)
[2] = target: WW2W domain of WWOX (WW2 domain, residues 57–91, with the Y85W substitution) (human, UniProt Q9NZC7 57-91, Y85W)
[3] = target: T2, WW1–WW2 tandem module of WWOX (residues …)

Chain of WW2W domain of WWOX (WW2 domain, residues 57–91, with the Y85W substitution) (Q9NZC7 57-91 Y85W): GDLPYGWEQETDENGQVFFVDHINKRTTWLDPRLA

Binder | Kd [1] [µM] | dH [1] [kJ/mol] | Kd [2] [µM] | dH [2] [kJ/mol] | Kd [3] [µM] | dH [3] [kJ/mol]
GHSPPPAYTPMS [ErbB4_PY2 peptide (12-mer spanning the PY2 PPXY motif of the ICD of ErbB4)] | 362 | -15.3 | 620 | -33.8 | 175 | -20.4
FNIPPPIYTSRA [ErbB4_PY1 peptide (12-mer spanning the PY1 PPXY motif of the ICD of ErbB4)] | 383 | -28.8 | 680 | -19.8 | 170 | -30.3
